Target: Gal4-ARNT-ΔTAD (PL283), Gal DNA-binding domain fusion of ARNT deleted for the transactivation domain
Assay: two-hybrid

fold increase of luciferase activity with 1nM TCDD [fold]	Substance
3	wild-type AHR, 'fish' of the mammalian two-hybrid (pTgTAHRs, PL1550) (from UniProt P30561 10-848) (natural protein)
10	full-length AHRdbd, 'fish' of the mammalian two-hybrid (pTgTAHRdbd, PL1548) (from UniProt P30561 10-848) (natural protein)
